Experimental data reported in publication PMC8051608, “Overexpression of GmMYB14 improves high‐density yield and drought tolerance of soybean through regulating plant architecture mediated by the brassinosteroid pathway”.

Target: T1, GmMYB14 (Glycine max cv. Tianlong No. 1, UniProt K7MYP5 1-291)
T1 sequence: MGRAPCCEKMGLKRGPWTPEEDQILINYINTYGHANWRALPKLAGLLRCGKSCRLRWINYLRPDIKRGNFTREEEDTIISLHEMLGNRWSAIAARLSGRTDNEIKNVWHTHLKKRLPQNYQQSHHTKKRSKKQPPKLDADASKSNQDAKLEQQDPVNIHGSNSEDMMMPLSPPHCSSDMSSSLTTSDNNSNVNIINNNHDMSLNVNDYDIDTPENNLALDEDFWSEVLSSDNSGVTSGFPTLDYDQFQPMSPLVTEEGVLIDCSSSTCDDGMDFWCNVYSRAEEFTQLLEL
Assay: EMSA; 100x cold probe competition tested; EMSA Kit (Thermo Fisher), non-denaturing 6% polyacrylamide gel, streptavidin-HRP/ECL detection; buffer, salt, pH and temperature not stated
Settings: protein: recombinant; tags: His (pCzn1-His vector); label: biotin; annealed complementary oligos

B1: GmBEN1 promoter AC element 1 probe (30 bp) (dsDNA)
DNA 1: TAATACACCAAGCCACCTACCTTGTCTCTTT
DNA 2: AAAGAGACAAGGTAGGTGGCTTGGTGTATTA
binding result: binds
